According to PMC10746174:

Target: heme
Assay: UV-vis spectroscopy, as-purified Soret peak (412 nm)
Settings: 50 µg of purified protein, as-purified (black trace); parent: est. 0.32; read off a plot

| Substance | response |
| --- | --- |
| CcmF:6×His wild type (from UniProt P33927) Y231A | 0.18 Abs. |
| CcmF:6×His wild type (from UniProt P33927) W229A | 0.2 Abs. |
